Patent publication US20260242478A1 (published 2026)
Where no end group is shown, it is not given here.

B1: Phage-3607, clonal phage showing a Peptide-180 library peptide (peptide)
peptide: LDIVCRPSWMCYGF
notes: Tested as crude clonal phage supernatant; not shown: pIII filament protein of the bacteriophage, fused to the peptide
B2: Phage-3606, clonal phage showing a Peptide-180 library peptide (peptide)
peptide: VVVSCTPSWMCTGL
notes: as for B1
B3: Phage-3615, clonal phage showing a Peptide-180 library peptide (peptide)
peptide: LDRLCLPQWMCVGM
notes: as for B1
B4: Phage-3614, clonal phage showing a Peptide-180 library peptide (peptide)
peptide: GWEWCIPEWMCTGL
notes: as for B1
B5: Phage-3604, clonal phage showing a Peptide-180 library peptide (peptide)
peptide: HVAMCQPTWMCMGF
modifications: cysteine pairing not given here; also: fused to pIII of bacteriophage, junction and order not given here
notes: as for B1
B6: Phage-3611, clonal phage showing a Peptide-180 library peptide (peptide)
peptide: VDRLCMPIWMCEGL
notes: as for B1
B7: Phage-3609, clonal phage showing a Peptide-180 library peptide (peptide)
peptide: SHMVCKPTWMCQGF
notes: as for B1
B8: Phage-3617, clonal phage showing a Peptide-180 library peptide (peptide)
peptide: DFIRCSPIWMCDGF
notes: as for B1
B9: Phage-3608, clonal phage showing a Peptide-180 library peptide (peptide)
peptide: ETVRCIPSWMCTGL
notes: as for B1
B10: Phage-3616, clonal phage showing a Peptide-180 library peptide (peptide)
peptide: ESRLCVPMWMCSGF
notes: as for B1
B11: Phage-3613, clonal phage showing a Peptide-180 library peptide (peptide)
peptide: ETMRCEPSWMCIGL
notes: as for B1
B12: Phage-3610, clonal phage showing a Peptide-180 library peptide (peptide)
peptide: VQPACVPIWMCDGL
notes: as for B1
B13: Phage-3612, clonal phage showing a Peptide-180 library peptide (peptide)
peptide: DPVMCMPRWMCDGF
notes: as for B1
B14: Phage-3605, clonal phage showing a Peptide-180 library peptide (peptide)
peptide: WTFKCEPVWMCEGF
notes: as for B1

Molecular target: T1, PSMA Fab (006 PSMA Fab)
T1 construct: also called Anti-PSMA Fab; anti-PSMA Fab
Assay: clonal phage ELISA on biotinylated PSMA Fab captured on neutravidin, blocking buffer alone, anti-M13 HRP detection;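 further: clonal phage were tested as crude supernatants, and the signal reflects phage still bound to the wells after washing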
Protocol: (§1) Clonal phage were harvested as crude supernatants and screened via standard ELISAs. […] Prior to the addition of clonal phage. wells were incubated with blocking buffer and PSMA antigen or blocking buffer alone. Without washing or aspirating, clonal phage supernatants were then added to the wells and incubated for a short time. Wells were then washed followed by detection of bound phage using a horse radish conjugated anti-M13 antibody.

| Binder | phage binding ELISA signal on anti-PSMA Fab |
| --- | --- |
| MVPVCIPLWMCSGF [Phage-3647 (Peptide-180 library clone)] | 1.51 |
| PLVLCIPQWMCQAM [Phage-3648 (Peptide-180 library clone)] | 1.51 |
| LQTLCIPPWMCMGF [Phage-3649 (Peptide-180 library clone)] | 1.5 |
| VDVRCMPLWMCSGF [Phage-3645 (Peptide-180 library clone)] | 1.52 |
| TAVMCIPYWMCGGM [Phage-3646 (Peptide-180 library clone)] | 1.52 |
| EQVLCRPAWMCLGF [Phage-3650 (Peptide-180 library clone)] | 1.5 |
| SVVMCVPEWMCQGF [Phage-3651 (Peptide-180 library clone)] | 1.5 |

Molecular target: T1, PSMA Fab (006 PSMA Fab)
Assay: clonal phage ELISA on captured PSMA Fab, wells pre-incubated with PSMA antigen as competitor
Protocol: as §1

| Binder | phage binding ELISA signal on anti-PSMA Fab in presence of PSMA |
| --- | --- |
| MVPVCIPLWMCSGF [Phage-3647 (Peptide-180 library clone)] | 0.0744 |
| PLVLCIPQWMCQAM [Phage-3648 (Peptide-180 library clone)] | 0.0663 |
| LQTLCIPPWMCMGF [Phage-3649 (Peptide-180 library clone)] | 0.0685 |
| VDVRCMPLWMCSGF [Phage-3645 (Peptide-180 library clone)] | 0.0628 |
| TAVMCIPYWMCGGM [Phage-3646 (Peptide-180 library clone)] | 0.104 |
| EQVLCRPAWMCLGF [Phage-3650 (Peptide-180 library clone)] | 0.0974 |
| SVVMCVPEWMCQGF [Phage-3651 (Peptide-180 library clone)] | 0.0734 |

Molecular target: T2, PSMA Fab (SEQ ID NOs: 19, 20) (biotinylated (site not stated))
T2 construct: In the phage ELISA the biotinylated PSMA Fab was captured on neutravidin coated plates; also called Anti-PSMA Fab; 006 PSMA Fab
Assay: clonal phage ELISA on captured biotinylated PSMA Fab, anti-M13-HRP detection, no PSMA antigen

| Binder | phage binding ELISA signal |
| --- | --- |
| GTTWCVPTWMCEGL [Phage-3634] | 1.54 |
| VEPLCRPTWMCMSL [Phage-3636] | 1.53 |
| ELILCRPSWMCTGL [Phage-3632] | 1.54 |
| YPPLCVPMWMCNGF [Phage-3639] | 1.53 |
| ADRVCKPAWMCDLF [Phage-3643] | 1.52 |
| PNILCKPQWMCAGF [Phage-3644] | 1.52 |
| SHALCRPAWMCMGL [Phage-3633] | 1.54 |
| LVNYCIPPWMCAGF [Phage-3631] | 1.54 |
| AEVKCIPTWMCTGF [Phage-3637] | 1.53 |
| VHQLCIPVWMCSGF [Phage-3638] | 1.53 |
| VTMKCQPMWMCQGL [Phage-3642] | 1.52 |
| FPAMCKPSWMCTGF [Phage-3640] | 1.53 |
| SNMVCIPSWMCNGF [Phage-3641] | 1.53 |
| EVAMCKPLWMCSGF [Phage-3635] | 1.53 |

Molecular target: T2, PSMA Fab (SEQ ID NOs: 19, 20)
Assay: clonal phage ELISA on captured biotinylated PSMA Fab, anti-M13-HRP detection, competitor: PSMA antigen pre-incubated
Protocol: as §1

| Binder | phage binding ELISA signal |
| --- | --- |
| GTTWCVPTWMCEGL [Phage-3634] | 0.077 |
| VEPLCRPTWMCMSL [Phage-3636] | 0.0766 |
| ELILCRPSWMCTGL [Phage-3632] | 0.0672 |
| YPPLCVPMWMCNGF [Phage-3639] | 0.107 |
| ADRVCKPAWMCDLF [Phage-3643] | 0.0527 |
| PNILCKPQWMCAGF [Phage-3644] | 0.0825 |
| SHALCRPAWMCMGL [Phage-3633] | 0.0783 |
| LVNYCIPPWMCAGF [Phage-3631] | 0.093 |
| AEVKCIPTWMCTGF [Phage-3637] | 0.079 |
| VHQLCIPVWMCSGF [Phage-3638] | 0.0996 |
| VTMKCQPMWMCQGL [Phage-3642] | 0.0738 |
| FPAMCKPSWMCTGF [Phage-3640] | 0.082 |
| SNMVCIPSWMCNGF [Phage-3641] | 0.0754 |
| EVAMCKPLWMCSGF [Phage-3635] | 0.069 |

Molecular target: T3, PSMA Fab (006 PSMA Fab), biotinylated (biotinylated (site and chain not stated))
T3 construct: also called Anti-PSMA Fab; anti-PSMA Fab
Assay: phage ELISA; biotinylated PSMA Fab on neutravidin plate, wells first incubated with PSMA antigen as competitor, HRP anti-M13 detection

| Binder | Phage binding ELISA signal, Anti-PSMA Fab with PSMA antigen |
| --- | --- |
| B1 | 0.0774 |
| B2 | 0.0718 |
| B3 | 0.0704 |
| B4 | 0.0625 |
| B5 | 0.123 |
| B6 | 0.0788 |
| B7 | 0.074 |
| B8 | 0.0807 |
| B9 | 0.0717 |
| B10 | 0.0707 |
| B11 | 0.0724 |
| B12 | 0.0782 |
| B13 | 0.0916 |
| B14 | 0.101 |

Molecular target: T4, PSMA Fab (biotinylated (site not stated))
T4 construct: Biotinylated PSMA Fab captured on neutravidin coated plates in the phage ELISA; also called Anti-PSMA Fab; 006 PSMA Fab
Assay: clonal phage ELISA on captured PSMA Fab, competitor PSMA antigen pre-incubated

| Binder | Phage binding ELISA signal, Anti-PSMA Fab with PSMA antigen |
| --- | --- |
| EIPWCVPSWMCNYF [Phage-3597] | 0.0904 |
| EGLRCVPAWMCAGF [Phage-3603] | 0.0633 |
| QGVACIPTWMCTGF [Phage-3595] | 0.0711 |
| VMHRCEPSWMCWGF [Phage-3601] | 0.118 |
| VETLCRPAWMCWGF [Phage-3598] | 0.0788 |
| TEIRCQPQWMCHGF [Phage-3594] | 0.0698 |
| HEPVCKPSWMCTGL [Phage-3602] | 0.0595 |
| WEVRCEPAWMCIGL [Phage-3600] | 0.0694 |
| QDLKCVPSWMCSGF [Phage-3599] | 0.0713 |
| LERLCRPAWMCDGF [Phage-3596] | 0.136 |

Molecular target: T3, PSMA Fab (006 PSMA Fab), biotinylated
Assay: phage ELISA; biotinylated PSMA Fab on neutravidin plate, blocking buffer alone, bound phage detected with HRP anti-M13 antibody
Protocol: as §1

| Binder | Phage binding ELISA signal, Anti-PSMA Fab |
| --- | --- |
| B1 | 1.58 |
| B2 | 1.58 |
| B3 | 1.57 |
| B4 | 1.57 |
| B5 | 1.58 |
| B6 | 1.58 |
| B7 | 1.58 |
| B8 | 1.57 |
| B9 | 1.58 |
| B10 | 1.57 |
| B11 | 1.57 |
| B12 | 1.58 |
| B13 | 1.57 |
| B14 | 1.58 |

Molecular target: T4, PSMA Fab
Assay: clonal phage ELISA on biotinylated PSMA Fab captured on neutravidin, anti-M13 HRP detection;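 further: crude clonal phage supernatants added to wells pretreated with PSMA antigen in blocking buffer or with blocking buffer only, then briefly incubated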
Protocol: as §1

| Binder | Phage binding ELISA signal, Anti-PSMA Fab |
| --- | --- |
| EIPWCVPSWMCNYF [Phage-3597] | 1.59 |
| EGLRCVPAWMCAGF [Phage-3603] | 1.58 |
| QGVACIPTWMCTGF [Phage-3595] | 1.59 |
| VMHRCEPSWMCWGF [Phage-3601] | 1.58 |
| VETLCRPAWMCWGF [Phage-3598] | 1.59 |
| TEIRCQPQWMCHGF [Phage-3594] | 1.6 |
| HEPVCKPSWMCTGL [Phage-3602] | 1.58 |
| WEVRCEPAWMCIGL [Phage-3600] | 1.59 |
| QDLKCVPSWMCSGF [Phage-3599] | 1.59 |
| LERLCRPAWMCDGF [Phage-3596] | 1.59 |
